Laboratory results taken from US20150056189A1 (Daiichi Sankyo, published 2015).

T1: human Siglec-15 V-set domain (human, UniProt Q6ZMC9 39-165)
T1 construct: range 39-165; Purified to a single 14 kDa band; Used as the analyte in SPR; also called hSiglec-15 (39-165) V-set domain; human Siglec-15 protein
T1 sequence (looked up): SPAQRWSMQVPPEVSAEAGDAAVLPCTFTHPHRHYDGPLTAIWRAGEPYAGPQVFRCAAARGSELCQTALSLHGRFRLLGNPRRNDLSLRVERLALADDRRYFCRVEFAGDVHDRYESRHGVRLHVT


How the values were obtained:
[1] = target: T1, human Siglec-15 V-set domain; assay: SPR, Biacore T200; antibody captured via anti-human IgG on CM5 chip, antigen as analyte, 1:1 binding model
Experimental: (§1) As a running buffer, HBS-EP+ (10 mM HEPES pH 7.4, 0.15 M NaCl, 3 mM EDTA, 0.05% surfactant P20) was used. On the chip having the antibody bound thereto, a dilution series of an antigen solution (0.003 to 7 nM) was added at a flow rate of 90 μL/min for 233 seconds, and subsequently, the dissociation phase was monitored for 2000 to 3600 seconds. As a regeneration solution, 3 M MgCl₂ was added at a flow rate of 10 μL/min for 30 seconds. In the analysis of data, a 1:1 binding model of analysis software (Biacore T200 Evaluation software, version 1.0) was used, and an association rate constant (kon), a dissociation rate constant (koff), and a dissociation constant (KD; KD=koff/kon) were calculated.

[2] = target: T1, human Siglec-15 V-set domain; assay: SPR, Biacore T200; ratio of KD values against K3-1115
Experimental: as §1

Kd [1] [pM] | fold enhancement of affinity compared with K3-1115 [2] [times] | Binder
260 | – | K3-1115 antibody (antibody, human IgG2, kappa, V domains shown, Humanized form of the rat antibody #32A1; Full-length IgG made in FreeStyle 293F cells; Used as the control antibody; In SPR it was captured through an anti-human IgG antibody; also called h#32A1-H1-1/L2-15) VH: EVQLVESGGGLVQPGGSLRLSCAASGFNFNDYFMNWVRQAPGKGLEWVAQIRNKIYTYATFYAASVKGRFTISRDNAKNSLYLQMNSLRAEDTAVYYCARSLTGGDYFDYWGQGTLVTVSS VL: EILMTQSPATLSLSPGERATLSCRASQSVTISGYSFIHWYQQKPGQAPRLLIYRASNLASGIPARFSGSGSGTDFTLTISSLEPEDFALYYCQQSRKSPWTFGQGTKVEIKR
4.1 | ~60 | K3-1115/T103E antibody (antibody, human IgG2, kappa, V domains shown, Full-length IgG made in FreeStyle 293F cells) VH: EVQLVESGGGLVQPGGSLRLSCAASGFNFNDYFMNWVRQAPGKGLEWVAQIRNKIYTYATFYAASVKGRFTISRDNAKNSLYLQMNSLRAEDTAVYYCARSLEGGDYFDYWGQGTLVTVSS VL: EILMTQSPATLSLSPGERATLSCRASQSVTISGYSFIHWYQQKPGQAPRLLIYRASNLASGIPARFSGSGSGTDFTLTISSLEPEDFALYYCQQSRKSPWTFGQGTKVEIKR
